In paper PMC5352868, “Physicochemical and Biological Characterization of the Proposed Biosimilar Tocilizumab” (BioMed Research International, 2017):

B1: HS628 (proposed biosimilar tocilizumab) (antibody, V domains shown)
VH: EVQLQESGPGLVRPSQTLSLTCTVSGYSITSDHAWSWVRQPPGRGLEWIGYISYSGITTYNPSLKSRVTMLRDTSKNQFSLRLSSVTAADTAVYYCARSLARTTAMDYWGQGSLVTVSS
VL: DIQMTQSPSSLSASVGDRVTITCRASQDISSYLNWYQQKPGKAPKLLTYYTSRLHSGVPSRFSGSGSGTDFTFTISSLQPEDIATYYCQQGNTLPYTFGQGTKVEIK
notes: found identical to the heavy chain of m1; found identical to the light chain of m1; IgG1; Four batches tested (20130901-20130904); source: Zhejiang Hisun Pharmaceutical; copies: 2 + 2
B2: Originator tocilizumab (Actemra) (antibody, V domains shown)
VH: EVQLQESGPGLVRPSQTLSLTCTVSGYSITSDHAWSWVRQPPGRGLEWIGYISYSGITTYNPSLKSRVTMLRDTSKNQFSLRLSSVTAADTAVYYCARSLARTTAMDYWGQGSLVTVSS
VL: DIQMTQSPSSLSASVGDRVTITCRASQDISSYLNWYQQKPGKAPKLLTYYTSRLHSGVPSRFSGSGSGTDFTFTISSLQPEDIATYYCQQGNTLPYTFGQGTKVEIK
notes: Recombinant humanized IgG1; also called originator product; source: bought: Roche Pharma (Schweiz) Ltd. (manufactured by Chugai Pharma Manufacturing Co., Ltd.); copies: 2 + 2

Experiments:
[1] = target: T1, soluble interleukin-6 receptor (sIL-6R) (Homo sapiens, UniProt P08887); test: SPR; Biacore X100 plus; anti-Fc antibody immobilised on CM5 chip (~2500 RU) captures the antibody sample (1.0 ug/mL, 10 uL/min, 60 s); IL-6R injected 150 to 4.7 ng/mL, 30 uL/min, 180 s, dissociation 500 s, HBS-EP+ buffer; minimum and maximum of four batches; settings: both partners purified
T1 construct: human interleukin-6 receptor, soluble form (sIL-6R); In the functional rows the receptor is the IL-6R on DS-1 cells
T1 sequence (P08887 20-365): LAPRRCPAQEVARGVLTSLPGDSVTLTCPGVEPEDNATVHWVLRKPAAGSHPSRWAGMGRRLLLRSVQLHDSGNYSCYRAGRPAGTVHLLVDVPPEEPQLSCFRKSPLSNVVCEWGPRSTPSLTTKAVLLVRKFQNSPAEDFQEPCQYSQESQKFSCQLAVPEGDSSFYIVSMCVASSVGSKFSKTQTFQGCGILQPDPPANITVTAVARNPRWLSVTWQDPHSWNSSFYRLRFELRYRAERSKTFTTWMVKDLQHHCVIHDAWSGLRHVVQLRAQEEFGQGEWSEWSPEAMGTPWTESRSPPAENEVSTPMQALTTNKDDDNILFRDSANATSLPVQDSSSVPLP

[2] = target: T1, soluble interleukin-6 receptor (sIL-6R); test: cell-based or functional assay

Binder	Kd [1] [nM]	DS-1 cell growth inhibition (CCK-8, 72 hrs, antibody 800 ug/mL to 12.21 ng/mL), relative potency (EC50) towards originator tocilizumab, batch 1 of 4; blocks IL-6 with IL-6R on the cells [2] [% relative potency]	DS-1 cell growth inhibition (CCK-8, 72 hrs, antibody 800 ug/mL to 12.21 ng/mL), relative potency (EC50) towards originator tocilizumab, batch 2 of 4; blocks IL-6 with IL-6R on the cells [2] [% relative potency]	DS-1 cell growth inhibition (CCK-8, 72 hrs, antibody 800 ug/mL to 12.21 ng/mL), relative potency (EC50) towards originator tocilizumab, batch 3 of 4; blocks IL-6 with IL-6R on the cells [2] [% relative potency]	DS-1 cell growth inhibition (CCK-8, 72 hrs, antibody 800 ug/mL to 12.21 ng/mL), relative potency (EC50) towards originator tocilizumab, batch 4 of 4; blocks IL-6 with IL-6R on the cells [2] [% relative potency]
B1	0.92 to 1.17	98	102	94	105
B2	1.08 to 1.78	–	–	–	–
